The record followed here is a protein production outcome set (Wang et al. 2014).
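Also: failed if final PepcDB status was selected cloned or expressed and not failed if soluble or beyond.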

The nature of the data set: label from the status in PepcDB records.
Consider “MKKASFVYSENQLSYQFHSTHPFNHQRLRLTYDLLKSMDALDDSEIVAPRVATEAELRLIHDQAFIDAVKAAGNGTLSDGVALNYGLGTEDTPIFKNMHEAAALLVGGTLTAVDQVMEGHAEHACHLGGGLHHGFRGKASGFCVYNDSSIAIEYMRRKFGARVLYIDTDAHHGDGVQWAFYEEDDVCTLSIHETGRYLFPGTGNFNEKGQGEGYGYSINIPLDAFTEDDSFLFAYEQAVTNVVKFFKPDVILTQNGADAHFHDPLTHLCASMRTFRYIPQLAHALAHEYCEGRWIAVGGGGYDIWRVVPRAWAMIWLEMTDQLQKANGPLPERWLSKWTTYAQHPLPSHWEDENEELPTIPRRDEITEKNKKIVEKALYHIYTELKTQT”, for which the protein production entry is on record as “failed”. For the sequence “MKKATIAATAGIAVTAFAAPTIASASTVVVEAGDTLWGIAQSKGTTVDAIKKANNLTTDKIVPGQKLQVNNEVAAAEKTEKSVSATWLNVRSGAGVDNSIITSIKGGTKVTVETTESNGWHKITYNDGKTGFVNGKYLTDKAVSTPVAPTQEVKKETTTQQAAPAAETKTEVKQTTQATTPAPKVAETKETPVVDQNATTHAVKSGDTIWALSVKYGVSVQDIMSWNNLSSSSIYVGQKLAIKQTANTATPKAEVKTEAPAAEKQAAPVVKENTNTNTATTEKKETATQQQTAPKAPTEAAKPAPAPSTNTNANKTNTNTNTNTNTNNTNTNTPSKNTNTNSNTNTNTNSNTNANQGSSNNNSNSSASAIIAEAQKHLGKAYSWGGNGPTTFDCSGYTKYVFAKAGISLPRTSGAQYASTTRISESQAKPGDLVFFDYGSGISHVGIYVGNGQMINAQDNGVKYDNIHGSGWGKYLVGFGRV”, the protein production entry is “failed”. Then “MKKAVVVFSGGQDSTTCLVQALKEFDEVHAITFDYGQRHKLEIEVAQKIAKDLGVKAHKVMDVGLLNELAISSLTRDDIPVSHELQENGLPNSFVPGRNILFLTLAGIYAYQIGADTVITGVCETDFSGYPDCRDDFVKSMNTALVKGMDRALTIKTPLMWLNKAETWALADQYNALQLVRENTLTCYNGIIGDGCGDCPSCDLRKAGLDEYLNNKDAVMKSLVQKQESEGL”, with “failed”; and “MKKDSTIAFTGGRILTMDSEQKYAEAVVIRGDRIAAVGGTYILKSFPDAEIRDLKNRYLLPAFIDSHNHLSSFGCLEHHHHHH”, with “not failed”; and “MKKFQEMCQEEFEKIELMARGGQKIVFDGVHNSYGETVIKLYFQLNDPRSLREIQIERDLNLSMVPKIYETGTIEYEGTETLYIIEQKVKGTELRKVLESGKRFSLEEAVTFLEQGLEFIACIENKGIVHRDIKPENIIRADDGRIFFLDFGIARILGADSLTRTGAMMGPHTPGYAAPEQFNNLKKEIDSRADIFSLGVVTYECITGKNPFREGSINALEVLQKTETITPVQYSIKGDTQSQFMALLGAMMGKYPSRRPRTAKQAIDWLKVAKKTFVYE”, with “failed”. In the case of “MKKFYFLILGIVLCGMVAQAQNSYEGHIGFGQHHVVRKGGELNVEVSLDLGAVKLAAQQMIVLTPVLRSTEGEEQQQLAPVVIAGPRRYRVLKRSLAFGTDNFEMSPMLVEKRKSGTPQTVNLHFGLPYHEWMRRAELILREEVTGCADCPVSQGDHTVITSVFDEQFTPRYELSYVTPPVEPLKQRSETHTAYLNFEVDKYVLLRNYKNNANVLADVDRIVNEIQNDSNLTVTEFRVTGYASPEGNYSRNMKLSENRALAFVGYLQNHGGVDESLLTVDWKGEDWSGLRREVAASSLIDKGAILAVIDGHTDFATRKNRLQALNGGTTYRMLLRDYYPPLRRNEYTISYVARAFNVDEAKQLIKTKPQYLSLNEMFLVANTYPKDSGEFKEVFDIAARIYPDDPVARLNTAALELENGAIDAAIVRLQKSDMPEAWNNLGIAYILKQDYKKGGEYLEKAIDAGIQAAAYNMGQLAAWLKTQE”, the protein production result is given as “failed”. On to “MKKGIFTALLFTVIVALYSLHLANGKCVYKSNISSLLLENIEALAADEDGSDDGEVVGGKIRCIDVGSLDCPLTHEKVKYIVRGYSL”, for which the protein production entry is recorded as “failed”.

Regarding “MKKGSLAIVLGSLLASGAFYTALADGMPAKQQHNNTGESVELHFHYPIKGKQEPKNSHLVVLIEPKIEINKVIPESYQKEFEKSLFLQLSSFLERKGYSVSQFKDASEIPQDIKEKALLVLRMDGNVAILEDIVEESDALSEEKVIDMSSGYLNLNFVEPKSEDIIHSFGIDVSKIKAVIERVELRRTNSGGFVPKTFVHRIKETDHDQAIRKIMNQAYHKVMVHITKELSKKHMEHYEKVSSEMKKRK”, the protein production entry is reported as “failed”. Take “MKKGVLIAFEGIDGSGKSSQATLLKDWIELKRDVYLTEWNSSDWIHDIIKEAKKKDLLTPLTFSLIHATDFSDRYERYILPMLKSGFIVISDRYIYTAYARDSVRGVDIDWVKKLYSFAIKPDITFYIRVSPDIALERIKKSKRKIKPQEAGADIFPGLSPEEGFLKYQGLITEVYDKLVKDENFIVIDGTKTPKEIQIQIRKFVGELIDNSF”: the protein production result is “not failed”. For “MKKIAIFGSAFNPPSLGHKSVIESLSHFDLVLLEPSIAHAWGKNMLDYPIRCKLVDAFIKDMGLSNVQRSDLEQALYQPGQSVTTYALLEKIQEIYPTADITFVIGPDNFFKFAKFYKAEEITERWTVMACPEKVKIRSTDIRNALIEGKDISTYTTPTVSELLLNEGLYRETLSGK”, the protein production entry is given as “not failed”.

Regarding “MKKIGIIGAGGIARAHATALSTIKNAELVGVYDINQQNAESFVKTFGGKSFENVDELIDASEGLIVASPNFCHKEHALQALGKHKHVLCEKPMAISLEEASIMKDTAERLSVRASMGFNYRYLSYVNILKSLIINNELGNILSIKVHFKKNSALRRKKFTWRDDANSKKTSGSLGDLGIHLIDMVWYLFESDFITESVRAKMNTNVKTKEDKQVLVDDYAEIYGQLRNKVFVNIITSKCSVPEDCGFSIEVVGHKKEFKYHTGNPHVYKLIDGLNVVDCPVPQSLLNDPPNEFYGWADSFRSELINWIASTQNDWVEIPSFSDGFRSQEVLEMFFEKDSNSQPLEHHHHHH”, the protein production entry is listed as “not failed”. As to “MKKIISLALALALSASAAELKMATTTSTDNTGLLDALKPLYEKESGNTLKWVAVGTGAALKMGEDCNADVLFVHSPKAEKEFMKKGFGVDRTPVMYNDFIIIADKSLASKFKGKNLKESLELIKNEKLTFISRGDKSGTDNKEKSLWKNLGGVPEKQSWYQQSGQGMLASIKIAEEKKGVILTDRGTYIKYEANEKGKPNLVIVNEGDDSLKNFYSVIATNPKHCKNVNYTEASKFIKWVTSDKTLNFIADFKLLNKPLFVIDAKTRKD”, the protein production entry is “failed”. Turning to “MKKILAFLLIAAGSTLFFVFLFIFLSKVFSGEILLSRYIFRIGGFELRWYSTLILMGFLISYFVARKRAKNEGINLEEFDELIFYGVIAGIVGARLYYVLFNLKYYRSLWDALKIWEGGLAIHGAVIGALLTGFLYVRLKKPSFTFLQATDLFTSVLPLGQAIGRWGNFFNYEAFGVPTNLPWKMFVPEPYRPVVYKDYSFFHPTFLYESIWDLLVFFMLSVYFKRYRKRHGEVTCLYFVLYSLGRIVIERLRVDSLMIGNIKAAQLLSAVLILLGFTGFLILRSSQEPKRAF”, the protein production result is given as “failed”. As for “MKKILASMAVASVAGGTVIGTAQAQTSIAPEDTQSKQASDVVTHENRVTVNVDALRVRTGPSTSNTILGLVSKEQSVPVVDETEDWYKIKYNNTEAYVNKEYATPNHIKVSTTTLRVRTGPSTSNSILGLVGEGEILQVTGEADGWYKIKYNNRDAYVSKDYVSINKSLVKSKKQKVQASRSYTVNVSSLRVRTGPSMSHPVVSVMNKGQVVQVVGEVQDWYRVKLNEGFAYINKDYVSRGTNNTANLPQSIQTESVQQNGTYIVDAAVLRVRTGPANYHPVIGGVLKGQSLQVVDIENGWYKIKYNNRTGYVSGEFVKFLKGSSTQEQTQTKEKLEQAQQPNHEQEKQEVAQQSTREQEKQEVAQQPTREQEKQEVVQQPTREQEKQEPAQNYYVKSSSLNVRSGAGMNYEVIGVVEPNQKIQVVGQQAGWYKINYNGKTGFVGMNYLSKTKVATVEEQPPSEVGTTNENTASGFIKPAAGSYTSGFEKRGGQMHYGLDIAASGTVSVSAAADGVVTRSYYSESYGNVVFISHNMNGQTYTTVYAHLNSRSVSAGQSVKQGQQIGFMGNTGQSEGQHLHFEVHKGEWNAQKSNAVNPKLYIK”, the entry is “failed”.
